Assay results taken from the FLAb antibody collection (doi:10.1101/2023.12.08.570889).

Target: TSLP, Q969D9
Assay: Kd (SPR)

Binder | Kd [nM]
unnamed (protein) chain 1: QMQLVESGGGVVQPGRSLRLSCAASGFTFRTYGMHWVRQAPGKGLEWVAVIWYDGSNKHYADSVKGRFTITRDNSKNTLNLQMNSLRAEDTAVYYCARDRFDVASGSSFDFWGQGTMVTVSS chain 2: SYVLTQPPSVSVAPGQTARITCGGNNLGSKSVHWYQQKPGQAPVLVVYDDSDRPSWIPERFSGSNSGNTATLTISRGEAGDEADYYCQVWDSSSDHVVFGGGTKLTVL | 126
unnamed (protein) chain 1: QMQLVESGGGVVQPGRSLRLSCAASGFTFRTYGMHWVRQAPGKGLEWVAVIWYDGSNKHYADSVKGRFTITRDNSKNTLNLQMNSLRAEDTAVYYCNAAIRTTVRTSAQEYWGQGTMVTVSS chain 2: SYVLTQPPSVSVAPGQTARITCGGNNLGSKSVHWYQQKPGQAPVLVVYDDSDRPSWIPERFSGSNSGNTATLTISRGEAGDEADYYCQVWDSSSDHVVFGGGTKLTVL | 103
unnamed (protein) chain 1: QMQLVESGGGVVQPGRSLRLSCAASGFTFRTYGMHWVRQAPGKGLEWVAVIWYDGSNKHYADSVKGRFTITRDNSKNTLNLQMNSLRAEDTAVYYCARSPRYDDYLEAFDVWGQGTMVTVSS chain 2: SYVLTQPPSVSVAPGQTARITCGGNNLGSKSVHWYQQKPGQAPVLVVYDDSDRPSWIPERFSGSNSGNTATLTISRGEAGDEADYYCQVWDSSSDHVVFGGGTKLTVL | 228
unnamed (protein) chain 1: QMQLVESGGGVVQPGRSLRLSCAASGFTFRTYGMHWVRQAPGKGLEWVAVIWYDGSNKHYADSVKGRFTITRDNSKNTLNLQMNSLRAEDTAVYYCTRDGGLLFAYYAMDYWGQGTMVTVSS chain 2: SYVLTQPPSVSVAPGQTARITCGGNNLGSKSVHWYQQKPGQAPVLVVYDDSDRPSWIPERFSGSNSGNTATLTISRGEAGDEADYYCQVWDSSSDHVVFGGGTKLTVL | 110
unnamed (protein) chain 1: QMQLVESGGGVVQPGRSLRLSCAASGFTFRTYGMHWVRQAPGKGLEWVAVIWYDGSNKHYADSVKGRFTITRDNSKNTLNLQMNSLRAEDTAVYYCARAPRYDYYLEAFDVWGQGTMVTVSS chain 2: SYVLTQPPSVSVAPGQTARITCGGNNLGSKSVHWYQQKPGQAPVLVVYDDSDRPSWIPERFSGSNSGNTATLTISRGEAGDEADYYCQVWDSSSDHVVFGGGTKLTVL | 238
unnamed (protein) chain 1: QMQLVESGGGVVQPGRSLRLSCAASGFTFRTYGMHWVRQAPGKGLEWVAVIWYDGSNKHYADSVKGRFTITRDNSKNTLNLQMNSLRAEDTAVYYCARAPRYDWLYEAFDVWGQGTMVTVSS chain 2: SYVLTQPPSVSVAPGQTARITCGGNNLGSKSVHWYQQKPGQAPVLVVYDDSDRPSWIPERFSGSNSGNTATLTISRGEAGDEADYYCQVWDSSSDHVVFGGGTKLTVL | 83
unnamed (protein) chain 1: QMQLVESGGGVVQPGRSLRLSCAASGFTFRTYGMHWVRQAPGKGLEWVAVIWYDGSNKHYADSVKGRFTITRDNSKNTLNLQMNSLRAEDTAVYYCARSPRYDWYWEAFDVWGQGTMVTVSS chain 2: SYVLTQPPSVSVAPGQTARITCGGNNLGSKSVHWYQQKPGQAPVLVVYDDSDRPSWIPERFSGSNSGNTATLTISRGEAGDEADYYCQVWDSSSDHVVFGGGTKLTVL | 240
unnamed (protein) chain 1: QMQLVESGGGVVQPGRSLRLSCAASGFTFRTYGMHWVRQAPGKGLEWVAVIWYDGSNKHYADSVKGRFTITRDNSKNTLNLQMNSLRAEDTAVYYCARSPRYYWYYEAFDVWGQGTMVTVSS chain 2: SYVLTQPPSVSVAPGQTARITCGGNNLGSKSVHWYQQKPGQAPVLVVYDDSDRPSWIPERFSGSNSGNTATLTISRGEAGDEADYYCQVWDSSSDHVVFGGGTKLTVL | 81.9
unnamed (protein) chain 1: QMQLVESGGGVVQPGRSLRLSCAASGFTFRTYGMHWVRQAPGKGLEWVAVIWYDGSNKHYADSVKGRFTITRDNSKNTLNLQMNSLRAEDTAVYYCARAPRYDDRWEAFDVWGQGTMVTVSS chain 2: SYVLTQPPSVSVAPGQTARITCGGNNLGSKSVHWYQQKPGQAPVLVVYDDSDRPSWIPERFSGSNSGNTATLTISRGEAGDEADYYCQVWDSSSDHVVFGGGTKLTVL | 193
unnamed (protein) chain 1: QMQLVESGGGVVQPGRSLRLSCAASGFTFRTYGMHWVRQAPGKGLEWVAVIWYDGSNKHYADSVKGRFTITRDNSKNTLNLQMNSLRAEDTAVYYCARAPRYDDRYEAFDVWGQGTMVTVSS chain 2: SYVLTQPPSVSVAPGQTARITCGGNNLGSKSVHWYQQKPGQAPVLVVYDDSDRPSWIPERFSGSNSGNTATLTISRGEAGDEADYYCQVWDSSSDHVVFGGGTKLTVL | 241
unnamed (protein) chain 1: QMQLVESGGGVVQPGRSLRLSCAASGFTFRTYGMHWVRQAPGKGLEWVAVIWYDGSNKHYADSVKGRFTITRDNSKNTLNLQMNSLRAEDTAVYYCARAPRYDDTYEAFDVWGQGTMVTVSS chain 2: SYVLTQPPSVSVAPGQTARITCGGNNLGSKSVHWYQQKPGQAPVLVVYDDSDRPSWIPERFSGSNSGNTATLTISRGEAGDEADYYCQVWDSSSDHVVFGGGTKLTVL | 86.2
unnamed (protein) chain 1: QMQLVESGGGVVQPGRSLRLSCAASGFTFRTYGMHWVRQAPGKGLEWVAVIWYDGSNKHYADSVKGRFTITRDNSKNTLNLQMNSLRAEDTAVYYCARAPRYDYYVEAFDVWGQGTMVTVSS chain 2: SYVLTQPPSVSVAPGQTARITCGGNNLGSKSVHWYQQKPGQAPVLVVYDDSDRPSWIPERFSGSNSGNTATLTISRGEAGDEADYYCQVWDSSSDHVVFGGGTKLTVL | 109
unnamed (protein) chain 1: QMQLVESGGGVVQPGRSLRLSCAASGFTFRTYGMHWVRQAPGKGLEWVAVIWYDGSNKHYADSVKGRFTITRDNSKNTLNLQMNSLRAEDTAVYYCARSPRYYDYWEAFDVWGQGTMVTVSS chain 2: SYVLTQPPSVSVAPGQTARITCGGNNLGSKSVHWYQQKPGQAPVLVVYDDSDRPSWIPERFSGSNSGNTATLTISRGEAGDEADYYCQVWDSSSDHVVFGGGTKLTVL | 72.3

The next lines start with the values.

Kd [nM] | Binder
122 | unnamed (protein) chain 1: QMQLVESGGGVVQPGRSLRLSCAASGFTFRTYGMHWVRQAPGKGLEWVAVIWYDGSNKHYADSVKGRFTITRDNSKNTLNLQMNSLRAEDTAVYYCARAPRYDDLYEAFDVWGQGTMVTVSS chain 2: SYVLTQPPSVSVAPGQTARITCGGNNLGSKSVHWYQQKPGQAPVLVVYDDSDRPSWIPERFSGSNSGNTATLTISRGEAGDEADYYCQVWDSSSDHVVFGGGTKLTVL
290 | unnamed (protein) chain 1: QMQLVESGGGVVQPGRSLRLSCAASGFTFRTYGMHWVRQAPGKGLEWVAVIWYDGSNKHYADSVKGRFTITRDNSKNTLNLQMNSLRAEDTAVYYCARSPRYDYYWEAFDVWGQGTMVTVSS chain 2: SYVLTQPPSVSVAPGQTARITCGGNNLGSKSVHWYQQKPGQAPVLVVYDDSDRPSWIPERFSGSNSGNTATLTISRGEAGDEADYYCQVWDSSSDHVVFGGGTKLTVL
102 | unnamed (protein) chain 1: QMQLVESGGGVVQPGRSLRLSCAASGFTFRTYGMHWVRQAPGKGLEWVAVIWYDGSNKHYADSVKGRFTITRDNSKNTLNLQMNSLRAEDTAVYYCARAPRYDWEYEAFDVWGQGTMVTVSS chain 2: SYVLTQPPSVSVAPGQTARITCGGNNLGSKSVHWYQQKPGQAPVLVVYDDSDRPSWIPERFSGSNSGNTATLTISRGEAGDEADYYCQVWDSSSDHVVFGGGTKLTVL
335 | unnamed (protein) chain 1: QMQLVESGGGVVQPGRSLRLSCAASGFTFRTYGMHWVRQAPGKGLEWVAVIWYDGSNKHYADSVKGRFTITRDNSKNTLNLQMNSLRAEDTAVYYCARSPRYDWYLEAFDVWGQGTMVTVSS chain 2: SYVLTQPPSVSVAPGQTARITCGGNNLGSKSVHWYQQKPGQAPVLVVYDDSDRPSWIPERFSGSNSGNTATLTISRGEAGDEADYYCQVWDSSSDHVVFGGGTKLTVL
83.9 | unnamed (protein) chain 1: QMQLVESGGGVVQPGRSLRLSCAASGFTFRTYGMHWVRQAPGKGLEWVAVIWYDGSNKHYADSVKGRFTITRDNSKNTLNLQMNSLRAEDTAVYYCARAPRYDTYYEAFDVWGQGTMVTVSS chain 2: SYVLTQPPSVSVAPGQTARITCGGNNLGSKSVHWYQQKPGQAPVLVVYDDSDRPSWIPERFSGSNSGNTATLTISRGEAGDEADYYCQVWDSSSDHVVFGGGTKLTVL
103 | unnamed (protein) chain 1: QMQLVESGGGVVQPGRSLRLSCAASGFTFRTYGMHWVRQAPGKGLEWVAVIWYDGSNKHYADSVKGRFTITRDNSKNTLNLQMNSLRAEDTAVYYCARAPRYDEAYEAFDVWGQGTMVTVSS chain 2: SYVLTQPPSVSVAPGQTARITCGGNNLGSKSVHWYQQKPGQAPVLVVYDDSDRPSWIPERFSGSNSGNTATLTISRGEAGDEADYYCQVWDSSSDHVVFGGGTKLTVL
